Measured values: US20140127225A1 (NEOTOPE BIOSCIENCES, published 2014)

Columns and labels:
[1] = molecular target: T1, human iC3b (purified; Complement Technology #A115) (human, UniProt P01024 23-667); test: direct ELISA, plate coated with 10 ug/ml iC3b, goat anti-human-HRP, ABTS, OD405
T1 construct: range 23-667; Bought purified protein; chains held together by disulfide bonds; also called purified human iC3b
Protocol: Costar RIA/EIA (Costar #3590) plate was coated with 100 ul/well of 10 ug/ml iC3b (Complement Technologies) at 4 degree overnight. At day 2, the plate was washed 5 times with washing buffer (TPBS+0.05% Tween 20) and blocked with 100 ul blocking buffer (PBS containing 1.5% BSA) per well for 1 hour at room temperature. Then the plate was washed 5 times with washing buffer and incubated with 100 ul per well of testing antibodies as indicated in the figure. After 1 hour of incubation at room temperature, the plate was washed again for 5 times with washing buffer and incubated with 1:4000 diluted Goat anti human-HRP (Jackson Immunoresearch, Code 109-036-098, lot 99937) in 100 ul blocking buffer per well.

[2] = molecular target: T1, human iC3b (purified; Complement …); test: Biacore; reference C3
Protocol: (§1) A preliminary Biacore assay was done with four concentrations of either iC3b or one of the two potential cross-reactive complement species (e.g., C3b or C3) to assess relative cross-reactivity. Unlike ELISA, a two-fold difference in KD is not sufficient to establish specificity in the Biacore assay. An anti-mouse CM5 chip was prepared following manufacture protocol. Three antibodies (including 6G1) were captured at levels such that Rmax would fall between 25 and 50 RU. Four concentrations of either iC3b or cross-reacting protein were used. Both were from Complement Technologies as described above.

[3] = molecular target: T1, human iC3b (purified; Complement …); test: Biacore; reference C3b
[4] = molecular target: T1, human iC3b (purified; Complement …); test: sandwich ELISA; antigen captured by chicken anti-C3; reference C3 or C3b
From the text: For secondary screening, C3, C3b and iC3b were used for testing cross-reactivity. The plate was coated with chicken anti-C3 antibody (LeeBio #CC3-80A) as the capture antibody. For primary screening, only iC3b was used for antigen capture. For antibody characterization, all C3 proteins (C3 (Complement Technology #A113); C3b (Complement Technology #A114); and iC3b (Complement Technology #A115)) were used for antigen capture. Supernatants from cells, control antibody, mouse anti-human iC3b (the A209 antibody (Quidel)), were used as detecting antibodies, respectively. Goat anti-mouse-HRP (Jackson ImmunoResearch #115-035-164) was used as the secondary Antibody. 1-Step ABTS (Thermo #37615) was used as the substrate.
The sandwich ELISA was performed for the two mice in Example 3. First, cell supernatants were only tested for binding to iC3b. C3, C3b, and iC3b were used in the secondary screening for testing cross-reactivity.

[5] = molecular target: T1, human iC3b (purified; Complement …); test: Biacore; antibody captured on anti-mouse CM5 chip, four concentrations of antigen
Protocol: as §1

[6] = molecular target: T2, human C3 (purified; Complement Technology #A113) (human, UniProt P01024 23-667; P01024 672-1663); test: Biacore; antibody captured on anti-mouse CM5 chip, four concentrations of antigen; Biacore; 6G1 captured on chip, C3 in solution: weak binding
T2 construct: range 23-667;range 672-1663; Bought purified protein

[7] = molecular target: T2, human C3 (purified; Complement …); test: Biacore; antibody captured on anti-mouse CM5 chip, four concentrations of antigen; Biacore; 6G1 captured on chip, C3 in solution: weak binding, >10x weaker than iC3b
[8] = molecular target: T1, human iC3b (purified; Complement …); test: sandwich ELISA; reference C3b
[9] = molecular target: T1, human iC3b (purified; Complement …); test: assay not described

T2 sequence (P01024 23-667 limits assumed, form in doubt, chain 1 of 2): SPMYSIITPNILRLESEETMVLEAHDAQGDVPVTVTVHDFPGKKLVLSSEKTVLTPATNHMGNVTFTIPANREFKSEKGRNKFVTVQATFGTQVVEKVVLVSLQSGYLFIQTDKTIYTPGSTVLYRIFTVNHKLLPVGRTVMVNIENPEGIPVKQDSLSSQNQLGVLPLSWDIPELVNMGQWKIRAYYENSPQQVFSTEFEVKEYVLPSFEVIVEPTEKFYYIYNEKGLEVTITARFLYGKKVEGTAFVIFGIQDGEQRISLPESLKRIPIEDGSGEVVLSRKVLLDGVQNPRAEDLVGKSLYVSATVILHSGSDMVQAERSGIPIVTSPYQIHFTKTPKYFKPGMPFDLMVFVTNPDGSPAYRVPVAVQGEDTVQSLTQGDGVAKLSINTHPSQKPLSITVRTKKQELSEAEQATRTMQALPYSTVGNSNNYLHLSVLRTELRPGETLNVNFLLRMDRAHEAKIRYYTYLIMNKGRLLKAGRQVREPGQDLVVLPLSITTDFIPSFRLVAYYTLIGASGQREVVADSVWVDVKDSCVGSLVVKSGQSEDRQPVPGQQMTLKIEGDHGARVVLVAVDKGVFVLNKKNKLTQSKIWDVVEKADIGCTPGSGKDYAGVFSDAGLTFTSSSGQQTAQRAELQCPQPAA
T2 sequence (P01024 672-1663 limits assumed, form in doubt, chain 2 of 2): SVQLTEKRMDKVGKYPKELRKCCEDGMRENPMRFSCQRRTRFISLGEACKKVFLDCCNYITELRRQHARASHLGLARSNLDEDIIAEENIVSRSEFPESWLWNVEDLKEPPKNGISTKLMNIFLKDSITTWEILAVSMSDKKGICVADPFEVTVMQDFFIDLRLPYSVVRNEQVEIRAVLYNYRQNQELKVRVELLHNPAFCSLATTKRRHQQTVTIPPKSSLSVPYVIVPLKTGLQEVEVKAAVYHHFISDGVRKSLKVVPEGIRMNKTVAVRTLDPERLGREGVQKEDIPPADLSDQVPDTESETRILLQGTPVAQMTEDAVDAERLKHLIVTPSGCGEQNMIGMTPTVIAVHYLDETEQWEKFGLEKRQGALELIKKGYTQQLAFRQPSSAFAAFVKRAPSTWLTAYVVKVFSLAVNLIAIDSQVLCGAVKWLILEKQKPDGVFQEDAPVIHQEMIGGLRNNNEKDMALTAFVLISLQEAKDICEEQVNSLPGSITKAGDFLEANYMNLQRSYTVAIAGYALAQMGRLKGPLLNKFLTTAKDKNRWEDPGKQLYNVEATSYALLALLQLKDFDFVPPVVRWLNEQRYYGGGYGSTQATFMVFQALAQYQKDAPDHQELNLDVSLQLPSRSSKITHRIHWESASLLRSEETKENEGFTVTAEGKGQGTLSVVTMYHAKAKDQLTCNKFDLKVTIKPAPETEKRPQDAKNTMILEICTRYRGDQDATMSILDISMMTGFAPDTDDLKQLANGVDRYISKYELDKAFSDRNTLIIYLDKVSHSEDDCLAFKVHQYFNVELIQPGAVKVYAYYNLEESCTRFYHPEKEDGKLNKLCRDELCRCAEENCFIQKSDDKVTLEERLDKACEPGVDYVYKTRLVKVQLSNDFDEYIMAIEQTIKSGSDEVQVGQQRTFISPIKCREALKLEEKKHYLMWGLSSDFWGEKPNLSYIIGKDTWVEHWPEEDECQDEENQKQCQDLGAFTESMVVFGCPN
T1 sequence (P01024 23-667 limits assumed, chain 1 of 3): as the sequence (P01024 23-667 limits assumed, form in doubt, chain 1 of 2) above
T1 sequence (P01024 749-1303 limits assumed, chain 2 of 3): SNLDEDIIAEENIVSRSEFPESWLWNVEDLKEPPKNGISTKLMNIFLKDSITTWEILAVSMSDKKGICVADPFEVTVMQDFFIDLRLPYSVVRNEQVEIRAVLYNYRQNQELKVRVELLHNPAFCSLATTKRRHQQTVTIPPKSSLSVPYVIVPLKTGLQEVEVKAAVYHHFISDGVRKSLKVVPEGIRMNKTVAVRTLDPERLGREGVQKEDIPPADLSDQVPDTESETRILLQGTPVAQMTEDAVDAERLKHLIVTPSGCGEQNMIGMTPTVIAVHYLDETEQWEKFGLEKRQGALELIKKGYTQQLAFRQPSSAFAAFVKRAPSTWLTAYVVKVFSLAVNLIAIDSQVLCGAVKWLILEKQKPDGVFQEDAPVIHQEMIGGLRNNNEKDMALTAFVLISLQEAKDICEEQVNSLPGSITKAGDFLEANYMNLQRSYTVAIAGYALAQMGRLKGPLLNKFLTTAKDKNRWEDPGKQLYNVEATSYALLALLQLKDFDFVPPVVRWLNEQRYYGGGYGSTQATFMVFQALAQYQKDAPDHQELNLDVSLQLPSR
T1 sequence (P01024 1321-1663 limits assumed, chain 3 of 3): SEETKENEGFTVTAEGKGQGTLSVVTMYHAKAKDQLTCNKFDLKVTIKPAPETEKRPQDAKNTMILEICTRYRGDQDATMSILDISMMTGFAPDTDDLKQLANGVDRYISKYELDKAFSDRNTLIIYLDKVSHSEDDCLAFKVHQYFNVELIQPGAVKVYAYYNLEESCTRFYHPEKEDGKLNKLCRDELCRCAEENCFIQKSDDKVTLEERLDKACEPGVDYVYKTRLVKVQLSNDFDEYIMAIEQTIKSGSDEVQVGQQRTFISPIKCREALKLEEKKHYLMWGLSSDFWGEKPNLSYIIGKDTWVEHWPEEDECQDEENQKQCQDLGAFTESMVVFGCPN

B1: chimeric 6G1 (antibody, V domains shown)
VH: QIQLVQSGPELKKPGETVKISCKASGYTFTNYGMNWVKQAPGKDLKWMGWINTYTGEPRYADEFKGRFAFSLETSASTAYLQINNLKNEDMATYFCAKGGYPHYYSMDYWGQGTSVTVSS
VL: DIQMTQSTSSLSASLGDRVTISCRASQDINNYLNWYQQKPDGTIKLLIYYTSKLHSGVPSRFSGSGSGRDYSLTISNLEQEDIATYFCQQGNTLPRTFGGGTKLEIKR
notes: also called chi-6G1
- EC50 (read off the curve) [1]: ~0.08 µg/mL

B2: humanized 6G1 version H3L3 (antibody, V domains shown)
VH: QVQLVQSGSELKKPGASVKVSCKASGYTFTNYGMNWVKQAPGQDLKWMGWINTYTGEPRYADEFKGRFVFSLDTSVSTAYLQISSLKAEDTATYYCARGGYPHYYSMDYWGQGTTVTVSS
VL: DIQMTQSPSSLSASVGDRVTITCRASQDINNYLNWYQQKPGKTPKLLIYYTSKLHSGVPSRFSGSGSGRDYILTISSLQPEDIATYYCQQGNTLPRTFGGGTKVEIKR
notes: Only variable regions are tied to it; also called Hu6G1 H3L3
- EC50 (read off the curve) [1]: ~0.08 µg/mL

B3: huH1L5 (antibody, V domains shown)
VH: QVQLVQSGSELKKPGASVKVSCKASGYTFTNYGMNWVRQAPGQGLKWMGWINTYTGEPRYADEFKGRFVFSLDTSVSTAYLQISSLKAEDTATYYCARGGYPHYYSMDYWGQGTTVTVSS
VL: DIQMTQSPSSLSASVGDRVTITCRASQDINNYLNWYQQKPGKTPKLLIYYTSKLHSGVPSRFSGSGSGRDYILTISSLQPEDIATYFCQQGNTLPRTFGGGTKVEIKR
notes: also called humanized 6G1 version H1L5
- binding result [1]: binds

B4: humanized 6G1 version H1L2 (antibody, V domains shown)
VH: QVQLVQSGSELKKPGASVKVSCKASGYTFTNYGMNWVRQAPGQGLKWMGWINTYTGEPRYADEFKGRFVFSLDTSVSTAYLQISSLKAEDTATYYCARGGYPHYYSMDYWGQGTTVTVSS
VL: DIQMTQSPSSLSASVGDRVTITCRASQDINNYLNWYQQKPGKTPKLLIYYTSKLHSGVPSRFSGSGSGRDYIFTISSLQPEDIATYYCQQGNTLPRTFGGGTKVEIKR
notes: H1 = 6G1 Hu v1 heavy, L2 = 6G1 Hu v2 light
- EC50 (read off the curve) [1]: ~0.1 µg/mL

B5: humanized 6G1 version H3L5 (antibody, V domains shown)
VH: QVQLVQSGSELKKPGASVKVSCKASGYTFTNYGMNWVKQAPGQDLKWMGWINTYTGEPRYADEFKGRFVFSLDTSVSTAYLQISSLKAEDTATYYCARGGYPHYYSMDYWGQGTTVTVSS
VL: DIQMTQSPSSLSASVGDRVTITCRASQDINNYLNWYQQKPGKTPKLLIYYTSKLHSGVPSRFSGSGSGRDYILTISSLQPEDIATYFCQQGNTLPRTFGGGTKVEIKR
notes: H3 = 6G1 Hu v3 heavy, L5 = 6G1 Hu v5 light
- binding result [1]: binds

B6: mouse monoclonal antibody 6G1 (antibody, V domains shown)
VH: QIQLVQSGPELKKPGETVKISCKASGYTFTNYGMNWVKQAPGKDLKWMGWINTYTGEPRYADEFKGRFAFSLETSASTAYLQINNLKNEDMATYFCAKGGYPHYYSMDYWGQGTSVTVSS
VL: DIQMTQSTSSLSASLGDRVTISCRASQDINNYLNWYQQKPDGTIKLLIYYTSKLHSGVPSRFSGSGSGRDYSLTISNLEQEDIATYFCQQGNTLPRTFGGGTKLEIKR
notes: Mouse hybridoma antibody; also called m6G1
- fold difference in KD, iC3b relative to C3 [2]: > 10 fold
- fold higher affinity constant for iC3b than C3b [3]: ≥ 10 fold
- fold specificity for iC3b vs. C3 or C3b [4]: > 2 fold
- Kd [5]: 43.3 nM
- kon [5]: 98000 M⁻¹ s⁻¹
- koff [6]: 0.028 s⁻¹
- kon [6]: 13000 M⁻¹ s⁻¹
- Kd [7]: 2100 nM

B7: mouse monoclonal antibody 2H8r (antibody, V domains shown)
VH: QIQLVQSGPELKKPGETVKISCKASGYTFTNYGMNWVKQAPGKGLKWMGWINTYTGEPTYADDFKGRFAFSLETSASTAYLQINNLKNEDMATYFCAKGGYPHYYSMDYWGQGTSVTVSS
VL: DIQMTQTTSSLSASLGDRVTISCRASQDISNYLNWYQQKPDGTVKLLIYYTSRLHSGVPSRFSGSGSGTDYSLTISNLEQEDIATYFCQQGKTLPRTFGGGTKLEIKR
notes: also called m2H8r
- fold higher affinity constant for iC3b than C3b [3]: ≥ 10 fold
- fold higher affinity constant for iC3b than C3b [8]: ≥ 2 fold

B8: humanized 5D2 version H1L1 (antibody, V domains shown)
VH: EVQLQQSGAEVKKPGASVKVSCKASGYTFTDNYYMNWVRQAPGQSLEWMGHIYPNNGVTSYNQKFRGRVTLTRDKSINTAYMELSSLTSEDTALYYCARNKLLSLYWYFDVWGQGTLVTVSS
VL: DIQMTQSPSSLSASVGDRVTITCRASVDIYNRLAWFQQKPGKAPKLLISGATSLATGVPSRFSGSGSGKDYTLTISSLQPEDFATYYCQQYWSTPWTFGGGTKLEIKR
notes: also called 5D2 H1L1
- binding result [9]: binds

B9: humanized 5D2 version H2L1 (antibody, V domains shown)
VH: EVQLQQSGAEVKKPGASVKVSCKASGYTFTDNYYMNWVRQAPGQSLEWMGHIYPNNGVTSYNQKFRGRVTITRDKSINTAYMELSSLTSEDTAVYYCARNKLLSLYWYFDVWGQGTLVTVSS
VL: DIQMTQSPSSLSASVGDRVTITCRASVDIYNRLAWFQQKPGKAPKLLISGATSLATGVPSRFSGSGSGKDYTLTISSLQPEDFATYYCQQYWSTPWTFGGGTKLEIKR
notes: also called 5D2 H2L1
- binding result [9]: binds

B10: mouse monoclonal antibody 5D2 (antibody, IgG1, V domains shown)
VH: EVQLQQSGPELVKPGASVKISCKASGYTFTDNYYMNWVKQSHGKSLEWIGHIYPNNGVTSYNQKFRGKATLTVDKSSNSAYMELRSLTSEDSALYYCARNKLLSLYWYFDVWGTGTSVTVSS
VL: DIQMTQSSSSFSVFLGDRITITCRASVDIYNRLAWFQQKPGNAPRLLISGATSLATGVPSRFSGSGSGKDYTLSITSLQTEDVTIYYCQQYWSTPWTFGGGTKLEIKR
notes: also called m5D2
- fold higher affinity constant for iC3b than C3b [3]: ≥ 10 fold
- fold specificity for iC3b vs. C3 or C3b [4]: > 2 fold
